From US20240117018A1

Legend:
[1] = molecular target: monomeric HIV-1 Ba-L gp120 (HIV-1 Ba-L); experiment: retention on the gp120 affinity column
[2] = molecular target: HIV-1 93TH057 gp120 coree (HIV-1); experiment: EBI PISA on PDB 5te6 (structure not solved in this filing)
[3] = molecular target: HIV-1 Env pseudovirus T251-18 (HIV-1); experiment: cell-based or functional assay
[4] = molecular target: HIV-1 Env pseudovirus 6041.v3.c23 (HIV-1); experiment: cell-based or functional assay
[5] = molecular target: HIV-1 Env pseudovirus X2088_c9 (HIV-1); experiment: cell-based or functional assay
[6] = molecular target: HIV-1 Env pseudovirus BJOX015000.11.5 (HIV-1); experiment: cell-based or functional assay
[7] = molecular target: HIV-1 Env pseudovirus X1254_c3 (HIV-1); experiment: cell-based or functional assay
[8] = molecular target: HIV-1 Env pseudovirus 3301.v1.c24 (HIV-1); experiment: cell-based or functional assay
[9] = molecular target: HIV-1 Env pseudovirus CNE5 (HIV-1); experiment: cell-based or functional assay
[10] = molecular target: HIV-1 Env pseudovirus X1193_c1 (HIV-1); experiment: cell-based or functional assay
[11] = molecular target: HIV-1 Env pseudovirus T255-34 (HIV-1); experiment: cell-based or functional assay
[12] = molecular target: HIV-1 Env pseudovirus 6952.v1.c20 (HIV-1); experiment: cell-based or functional assay
[13] = molecular target: HIV-1 Env pseudovirus BJOX010000.06.2 (HIV-1); experiment: cell-based or functional assay
[14] = molecular target: HIV-1 Env pseudovirus R1166.c01 (HIV-1); experiment: cell-based or functional assay
[15] = molecular target: HIV-1 Env pseudovirus 6540.v4.c1 (HIV-1); experiment: cell-based or functional assay
[16] = molecular target: HIV-1 Env pseudovirus 3103.v3.c10 (HIV-1); experiment: cell-based or functional assay
[17] = molecular target: HIV-1 Env pseudovirus 620345.c01 (HIV-1); experiment: cell-based or functional assay
[18] = molecular target: HIV-1 Env pseudovirus 3817.v2.c59 (HIV-1); experiment: cell-based or functional assay
[19] = molecular target: HIV-1 Env pseudovirus P0402_c2_11 (HIV-1); experiment: cell-based or functional assay
[20] = molecular target: HIV-1 Env pseudovirus 6811.v7.c18 (HIV-1); experiment: cell-based or functional assay
[21] = molecular target: HIV-1 Env pseudovirus T250-4 (HIV-1); experiment: cell-based or functional assay
[22] = molecular target: HIV-1 Env pseudovirus 231965.c01 (HIV-1); experiment: cell-based or functional assay
[23] = molecular target: HIV-1 Env pseudovirus 6545.v4.c1 (HIV-1); experiment: cell-based or functional assay
[24] = molecular target: HIV-1 Env pseudovirus C2101.c01 (HIV-1); experiment: cell-based or functional assay
[25] = molecular target: HIV-1 Env pseudovirus P1981_C5_3 (HIV-1); experiment: cell-based or functional assay
[26] = molecular target: HIV-1 Env pseudovirus C3347.c11 (HIV-1); experiment: cell-based or functional assay
[27] = molecular target: HIV-1 Env pseudovirus 6480.v4.c25 (HIV-1); experiment: cell-based or functional assay
[28] = molecular target: HIV-1 Env pseudovirus BJOX028000.10.3 (HIV-1); experiment: cell-based or functional assay
[29] = molecular target: HIV-1 Env pseudovirus R2184.c04 (HIV-1); experiment: cell-based or functional assay
[30] = molecular target: HIV-1 Env pseudovirus BJOX009000.02.4 (HIV-1); experiment: cell-based or functional assay
[31] = molecular target: HIV-1 Env pseudovirus BJOX025000.01.1 (HIV-1); experiment: cell-based or functional assay
[32] = molecular target: HIV-1 Env pseudovirus 211-9 (HIV-1); experiment: cell-based or functional assay
[33] = molecular target: HIV-1 Env pseudovirus 3016.v5.c45 (HIV-1); experiment: cell-based or functional assay
[34] = molecular target: HIV-1 Env pseudovirus C1080.c03 (HIV-1); experiment: cell-based or functional assay
[35] = molecular target: HIV-1 Env pseudovirus R3265.c06 (HIV-1); experiment: cell-based or functional assay
[36] = molecular target: HIV-1 Env pseudovirus 0815.v3.c3 (HIV-1); experiment: cell-based or functional assay
[37] = molecular target: HIV-1 Env pseudovirus 235-47 (HIV-1); experiment: cell-based or functional assay
[38] = molecular target: HIV-1 Env pseudovirus 231966.c02 (HIV-1); experiment: cell-based or functional assay
[39] = molecular target: HIV-1 Env pseudovirus C4118.c09 (HIV-1); experiment: cell-based or functional assay
[40] = molecular target: HIV-1 Env pseudovirus X1632_S2_B10 (HIV-1); experiment: cell-based or functional assay
[41] = molecular target: HIV-1 Env pseudovirus A07412M1.vrc12 (HIV-1); experiment: cell-based or functional assay
[42] = molecular target: HIV-1 Env pseudovirus T278-50 (HIV-1); experiment: cell-based or functional assay
[43] = molecular target: HIV-1 Env pseudovirus X2131_C1_B5 (HIV-1); experiment: cell-based or functional assay
[44] = molecular target: HIV-1 Env pseudovirus 89-F1_2_25 (HIV-1); experiment: cell-based or functional assay
[45] = molecular target: HIV-1 93TH057 gp120 coree (HIV-1); experiment: EBI PISA on PDB 3ngb (structure not solved in this filing)

Substance: Synagis (antibody)
- recovery on the gp120 affinity column [1]: < 1%

Substance: N6 Fab
- buried surface area, CDR H3 [2]: 123 Å^2

Substance: 45-46 (antibody)
- IC50 (Titer in TZM.bl cells) [3]: 5.26 µg/mL
- IC80 (Titer in TZM.bl cells) [3]: 5.26 µg/mL
- IC50 (Titer in TZM.bl cells) [4]: 0.01 µg/mL
- IC80 (Titer in TZM.bl cells) [4]: 0.04 µg/mL
- IC50 (Titer in TZM.bl cells) [5]: > 50 µg/mL
- IC80 (Titer in TZM.bl cells) [5]: > 50 µg/mL
- IC50 (Titer in TZM.bl cells) [6]: 0.06 µg/mL
- IC80 (Titer in TZM.bl cells) [6]: 0.38 µg/mL
- IC50 (Titer in TZM.bl cells) [7]: 0.08 µg/mL
- IC80 (Titer in TZM.bl cells) [7]: 0.08 µg/mL
- IC50 (Titer in TZM.bl cells) [8]: 0.01 µg/mL
- IC80 (Titer in TZM.bl cells) [8]: 0.03 µg/mL
- IC50 (Titer in TZM.bl cells) [9]: 0.09 µg/mL
- IC80 (Titer in TZM.bl cells) [9]: 0.41 µg/mL
- IC50 (Titer in TZM.bl cells) [10]: 0.04 µg/mL
- IC80 (Titer in TZM.bl cells) [10]: 0.16 µg/mL
- IC50 (Titer in TZM.bl cells) [11]: 0.23 µg/mL
- IC80 (Titer in TZM.bl cells) [11]: 2.38 µg/mL
- IC50 (Titer in TZM.bl cells) [12]: 0.02 µg/mL
- IC80 (Titer in TZM.bl cells) [12]: 0.07 µg/mL
- IC50 (Titer in TZM.bl cells) [13]: 0.87 µg/mL
- IC80 (Titer in TZM.bl cells) [13]: 6.37 µg/mL
- IC50 (Titer in TZM.bl cells) [14]: 1.68 µg/mL
- IC80 (Titer in TZM.bl cells) [14]: 1.68 µg/mL
- IC50 (Titer in TZM.bl cells) [15]: > 50 µg/mL
- IC80 (Titer in TZM.bl cells) [15]: > 50 µg/mL
- IC50 (Titer in TZM.bl cells) [16]: 1.66 µg/mL
- IC80 (Titer in TZM.bl cells) [16]: 6.57 µg/mL
- IC50 (Titer in TZM.bl cells) [17]: > 30 µg/mL
- IC80 (Titer in TZM.bl cells) [17]: > 30 µg/mL
- IC50 (Titer in TZM.bl cells) [18]: > 50 µg/mL
- IC80 (Titer in TZM.bl cells) [18]: > 50 µg/mL
- IC50 (Titer in TZM.bl cells) [19]: 0.06 µg/mL
- IC80 (Titer in TZM.bl cells) [19]: 0.26 µg/mL
- IC50 (Titer in TZM.bl cells) [20]: 0.03 µg/mL
- IC80 (Titer in TZM.bl cells) [20]: 0.13 µg/mL
- IC50 (Titer in TZM.bl cells) [21]: > 30 µg/mL
- IC80 (Titer in TZM.bl cells) [21]: > 30 µg/mL
- IC50 (Titer in TZM.bl cells) [22]: 0.1 µg/mL
- IC80 (Titer in TZM.bl cells) [22]: 0.1 µg/mL
- IC50 (Titer in TZM.bl cells) [23]: > 50 µg/mL
- IC80 (Titer in TZM.bl cells) [23]: > 50 µg/mL
- IC50 (Titer in TZM.bl cells) [24]: 12.8 µg/mL
- IC80 (Titer in TZM.bl cells) [24]: > 50 µg/mL
- IC50 (Titer in TZM.bl cells) [25]: 0.05 µg/mL
- IC80 (Titer in TZM.bl cells) [25]: 0.22 µg/mL
- IC50 (Titer in TZM.bl cells) [26]: 0.03 µg/mL
- IC80 (Titer in TZM.bl cells) [26]: 0.18 µg/mL
- IC50 (Titer in TZM.bl cells) [27]: 0.02 µg/mL
- IC80 (Titer in TZM.bl cells) [27]: 0.08 µg/mL
- IC50 (Titer in TZM.bl cells) [28]: 0.07 µg/mL
- IC80 (Titer in TZM.bl cells) [28]: > 50 µg/mL
- IC50 (Titer in TZM.bl cells) [29]: 0.03 µg/mL
- IC80 (Titer in TZM.bl cells) [29]: 0.12 µg/mL
- IC50 (Titer in TZM.bl cells) [30]: 0.26 µg/mL
- IC80 (Titer in TZM.bl cells) [30]: 1.16 µg/mL
- IC50 (Titer in TZM.bl cells) [31]: 0.18 µg/mL
- IC80 (Titer in TZM.bl cells) [31]: 10 µg/mL
- IC50 (Titer in TZM.bl cells) [32]: > 50 µg/mL
- IC80 (Titer in TZM.bl cells) [32]: > 50 µg/mL
- IC50 (Titer in TZM.bl cells) [33]: > 30 µg/mL
- IC80 (Titer in TZM.bl cells) [33]: > 30 µg/mL
- IC50 (Titer in TZM.bl cells) [34]: 1.79 µg/mL
- IC80 (Titer in TZM.bl cells) [34]: 18 µg/mL
- IC50 (Titer in TZM.bl cells) [35]: 0.04 µg/mL
- IC80 (Titer in TZM.bl cells) [35]: 0.44 µg/mL
- IC50 (Titer in TZM.bl cells) [36]: 0.01 µg/mL
- IC80 (Titer in TZM.bl cells) [36]: 0.03 µg/mL
- IC50 (Titer in TZM.bl cells) [37]: 0.3 µg/mL
- IC80 (Titer in TZM.bl cells) [37]: 1.49 µg/mL
- IC50 (Titer in TZM.bl cells) [38]: 1.11 µg/mL
- IC80 (Titer in TZM.bl cells) [38]: 11.4 µg/mL
- IC50 (Titer in TZM.bl cells) [39]: 0.14 µg/mL
- IC80 (Titer in TZM.bl cells) [39]: 0.91 µg/mL
- IC50 (Titer in TZM.bl cells) [40]: 0.07 µg/mL
- IC80 (Titer in TZM.bl cells) [40]: > 50 µg/mL
- IC50 (Titer in TZM.bl cells) [41]: 0.03 µg/mL
- IC80 (Titer in TZM.bl cells) [41]: 0.13 µg/mL
- IC50 (Titer in TZM.bl cells) [42]: > 30 µg/mL
- IC80 (Titer in TZM.bl cells) [42]: > 30 µg/mL
- IC50 (Titer in TZM.bl cells) [43]: 0.2 µg/mL
- IC80 (Titer in TZM.bl cells) [43]: 0.9 µg/mL
- IC50 (Titer in TZM.bl cells) [44]: > 50 µg/mL
- IC80 (Titer in TZM.bl cells) [44]: > 50 µg/mL

Substance: VRC01 Fab
- buried surface area, CDR H3 [45]: 160 Å^2
